Primed or numbered codes have the meaning given here. Where no end group is shown, it is not given here. [ ]: non-standard residue; d: D form. The star is where a group is joined. PEG 40 kDa″ = polyethylene glycol of 40 kDa covalently attached to the side chain; PEG 40 kDa = PEG (40 kDa) covalently attached to Cys; Met(O) = CS(=O)CC[C@H](N)C(=O)O; Myristoyl = CCCCCCCCCCCCCC(=O)*; Nle = CCCC[C@H](N)C(=O)O; Orn = NCCC[C@H](N)C(=O)O; Dab = NCC[C@H](N)C(=O)O; Dap = NC[C@H](N)C(=O)O; Aib = CC(C)(N)C(=O)O; Carbamoyl = NC(=O)*; Acm = CC(=O)NC*
B1: mt-252 (peptide)
peptide: Y[Aib]QGTFTSDYSIYLDKQAA[Aib]EFVNWLLAGGPSSGAPPPSC-NH2
modifications: N-terminus assumed
SMILES: CC[C@H](C)[C@H](NC(=O)[C@H](CO)NC(=O)[C@H](Cc1ccc(O)cc1)NC(=O)[C@H](CC(=O)O)NC(=O)[C@H](CO)NC(=O)[C@@H](NC(=O)[C@H](Cc1ccccc1)NC(=O)[C@@H](NC(=O)CNC(=O)[C@H](CCC(N)=O)NC(=O)C(C)(C)NC(=O)[C@@H](N)Cc1ccc(O)cc1)[C@@H](C)O)[C@@H](C)O)C(=O)N[C@@H](Cc1ccc(O)cc1)C(=O)N[C@@H](CC(C)C)C(=O)N[C@@H](CC(=O)O)C(=O)N[C@@H](CCCCN)C(=O)N[C@@H](CCC(N)=O)C(=O)N[C@@H](C)C(=O)N[C@@H](C)C(=O)NC(C)(C)C(=O)N[C@@H](CCC(=O)O)C(=O)N[C@@H](Cc1ccccc1)C(=O)N[C@H](C(=O)N[C@@H](CC(N)=O)C(=O)N[C@@H](Cc1c[nH]c2ccccc12)C(=O)N[C@@H](CC(C)C)C(=O)N[C@@H](CC(C)C)C(=O)N[C@@H](C)C(=O)NCC(=O)NCC(=O)N1CCC[C@H]1C(=O)N[C@@H](CO)C(=O)N[C@@H](CO)C(=O)NCC(=O)N[C@@H](C)C(=O)N1CCC[C@H]1C(=O)N1CCC[C@H]1C(=O)N1CCC[C@H]1C(=O)N[C@@H](CO)C(=O)N[C@@H](CS)C(N)=O)C(C)C
B2: Peptide K backbone with Dab(Ac) at position 3 (peptide)
peptide: HS[Dab](Ac)GTFTSDYSKYLD[Aib]RRAADFVAWLMDE
B3: mt-255 (peptide)
peptide: Y[Aib]QGTFTSDYSIYLDKQAA[Aib]EFVNWLLAGGPSSGAPPPSC(PEG 40 kDa″)-NH2
B4: mt-250 (peptide)
peptide: Y[Aib]QGTFTSDYSIYLD[Aib]QAA[Aib]EFVNWLLAGGPSSGAPPPSC-NH2
modifications: N-terminus assumed
SMILES: CC[C@H](C)[C@H](NC(=O)[C@H](CO)NC(=O)[C@H](Cc1ccc(O)cc1)NC(=O)[C@H](CC(=O)O)NC(=O)[C@H](CO)NC(=O)[C@@H](NC(=O)[C@H](Cc1ccccc1)NC(=O)[C@@H](NC(=O)CNC(=O)[C@H](CCC(N)=O)NC(=O)C(C)(C)NC(=O)[C@@H](N)Cc1ccc(O)cc1)[C@@H](C)O)[C@@H](C)O)C(=O)N[C@@H](Cc1ccc(O)cc1)C(=O)N[C@@H](CC(C)C)C(=O)N[C@@H](CC(=O)O)C(=O)NC(C)(C)C(=O)N[C@@H](CCC(N)=O)C(=O)N[C@@H](C)C(=O)N[C@@H](C)C(=O)NC(C)(C)C(=O)N[C@@H](CCC(=O)O)C(=O)N[C@@H](Cc1ccccc1)C(=O)N[C@H](C(=O)N[C@@H](CC(N)=O)C(=O)N[C@@H](Cc1c[nH]c2ccccc12)C(=O)N[C@@H](CC(C)C)C(=O)N[C@@H](CC(C)C)C(=O)N[C@@H](C)C(=O)NCC(=O)NCC(=O)N1CCC[C@H]1C(=O)N[C@@H](CO)C(=O)N[C@@H](CO)C(=O)NCC(=O)N[C@@H](C)C(=O)N1CCC[C@H]1C(=O)N1CCC[C@H]1C(=O)N1CCC[C@H]1C(=O)N[C@@H](CO)C(=O)N[C@@H](CS)C(N)=O)C(C)C
B5: mt-251 (peptide)
peptide: Y[Aib]QGTFTSDYSIYLDEQAA[Aib]EFVNWLLAGGPSSGAPPPSC-NH2
modifications: N-terminus assumed
SMILES: CC[C@H](C)[C@H](NC(=O)[C@H](CO)NC(=O)[C@H](Cc1ccc(O)cc1)NC(=O)[C@H](CC(=O)O)NC(=O)[C@H](CO)NC(=O)[C@@H](NC(=O)[C@H](Cc1ccccc1)NC(=O)[C@@H](NC(=O)CNC(=O)[C@H](CCC(N)=O)NC(=O)C(C)(C)NC(=O)[C@@H](N)Cc1ccc(O)cc1)[C@@H](C)O)[C@@H](C)O)C(=O)N[C@@H](Cc1ccc(O)cc1)C(=O)N[C@@H](CC(C)C)C(=O)N[C@@H](CC(=O)O)C(=O)N[C@@H](CCC(=O)O)C(=O)N[C@@H](CCC(N)=O)C(=O)N[C@@H](C)C(=O)N[C@@H](C)C(=O)NC(C)(C)C(=O)N[C@@H](CCC(=O)O)C(=O)N[C@@H](Cc1ccccc1)C(=O)N[C@H](C(=O)N[C@@H](CC(N)=O)C(=O)N[C@@H](Cc1c[nH]c2ccccc12)C(=O)N[C@@H](CC(C)C)C(=O)N[C@@H](CC(C)C)C(=O)N[C@@H](C)C(=O)NCC(=O)NCC(=O)N1CCC[C@H]1C(=O)N[C@@H](CO)C(=O)N[C@@H](CO)C(=O)NCC(=O)N[C@@H](C)C(=O)N1CCC[C@H]1C(=O)N1CCC[C@H]1C(=O)N1CCC[C@H]1C(=O)N[C@@H](CO)C(=O)N[C@@H](CS)C(N)=O)C(C)C
B6: Peptide J backbone with Dab(Ac) at position 3 (peptide)
peptide: HS[Dab](Ac)GTFTSDYSKYLDTRRAAEFVAWL[Nle]DE
B7: mt-259 (peptide)
peptide: Y[Aib]QGTFTSDYSIYLDSQAA[Aib]EFVCWLLAG-NH2
modifications: N-terminus assumed
SMILES: CC[C@H](C)[C@H](NC(=O)[C@H](CO)NC(=O)[C@H](Cc1ccc(O)cc1)NC(=O)[C@H](CC(=O)O)NC(=O)[C@H](CO)NC(=O)[C@@H](NC(=O)[C@H](Cc1ccccc1)NC(=O)[C@@H](NC(=O)CNC(=O)[C@H](CCC(N)=O)NC(=O)C(C)(C)NC(=O)[C@@H](N)Cc1ccc(O)cc1)[C@@H](C)O)[C@@H](C)O)C(=O)N[C@@H](Cc1ccc(O)cc1)C(=O)N[C@@H](CC(C)C)C(=O)N[C@@H](CC(=O)O)C(=O)N[C@@H](CO)C(=O)N[C@@H](CCC(N)=O)C(=O)N[C@@H](C)C(=O)N[C@@H](C)C(=O)NC(C)(C)C(=O)N[C@@H](CCC(=O)O)C(=O)N[C@@H](Cc1ccccc1)C(=O)N[C@H](C(=O)N[C@@H](CS)C(=O)N[C@@H](Cc1c[nH]c2ccccc12)C(=O)N[C@@H](CC(C)C)C(=O)N[C@@H](CC(C)C)C(=O)N[C@@H](C)C(=O)NCC(N)=O)C(C)C
B8: Peptide J backbone with Q at position 3 (peptide)
peptide: HSQGTFTSDYSKYLDTRRAAEFVAWL[Nle]DE
B9: mt-258 (peptide)
peptide: Y[Aib]QGTFTSDYSIYLDEQAA[Aib]EFVCWLLAG-NH2
modifications: N-terminus assumed
SMILES: CC[C@H](C)[C@H](NC(=O)[C@H](CO)NC(=O)[C@H](Cc1ccc(O)cc1)NC(=O)[C@H](CC(=O)O)NC(=O)[C@H](CO)NC(=O)[C@@H](NC(=O)[C@H](Cc1ccccc1)NC(=O)[C@@H](NC(=O)CNC(=O)[C@H](CCC(N)=O)NC(=O)C(C)(C)NC(=O)[C@@H](N)Cc1ccc(O)cc1)[C@@H](C)O)[C@@H](C)O)C(=O)N[C@@H](Cc1ccc(O)cc1)C(=O)N[C@@H](CC(C)C)C(=O)N[C@@H](CC(=O)O)C(=O)N[C@@H](CCC(=O)O)C(=O)N[C@@H](CCC(N)=O)C(=O)N[C@@H](C)C(=O)N[C@@H](C)C(=O)NC(C)(C)C(=O)N[C@@H](CCC(=O)O)C(=O)N[C@@H](Cc1ccccc1)C(=O)N[C@H](C(=O)N[C@@H](CS)C(=O)N[C@@H](Cc1c[nH]c2ccccc12)C(=O)N[C@@H](CC(C)C)C(=O)N[C@@H](CC(C)C)C(=O)N[C@@H](C)C(=O)NCC(N)=O)C(C)C
B10: Peptide J backbone with Dap(urea) at position 3 (peptide)
peptide: HS[Dap](Carbamoyl)GTFTSDYSKYLDTRRAAEFVAWL[Nle]DE
B11: Peptide J backbone with M(O) at position 3 (peptide)
peptide: HS[Met(O)]GTFTSDYSKYLDTRRAAEFVAWL[Nle]DE
B12: Peptide J backbone with C(Acm) at position 3 (peptide)
peptide: HSC(Acm)GTFTSDYSKYLDTRRAAEFVAWL[Nle]DE
B13: Peptide K backbone with Q at position 3 (peptide)
peptide: HSQGTFTSDYSKYLD[Aib]RRAADFVAWLMDE
B14: mt-341 (peptide)
peptide: Y[Aib]EGTFTSDK(Myristoyl)SIYLDKQAA[Aib]EFVC(PEG 40 kDa)WLLAGGPSSGAPPPS-NH2
B15: Peptide J backbone with Orn(Ac) at position 3 (peptide)
peptide: HS[Orn](Ac)GTFTSDYSKYLDTRRAAEFVAWL[Nle]DE

Experiments:
Experiment in all cases: cell-based or functional assay
[1] = biological target: glucagon receptor (UniProt P47871 26-477, limits assumed)
Target sequence in this assay (P47871 26-477 limits assumed): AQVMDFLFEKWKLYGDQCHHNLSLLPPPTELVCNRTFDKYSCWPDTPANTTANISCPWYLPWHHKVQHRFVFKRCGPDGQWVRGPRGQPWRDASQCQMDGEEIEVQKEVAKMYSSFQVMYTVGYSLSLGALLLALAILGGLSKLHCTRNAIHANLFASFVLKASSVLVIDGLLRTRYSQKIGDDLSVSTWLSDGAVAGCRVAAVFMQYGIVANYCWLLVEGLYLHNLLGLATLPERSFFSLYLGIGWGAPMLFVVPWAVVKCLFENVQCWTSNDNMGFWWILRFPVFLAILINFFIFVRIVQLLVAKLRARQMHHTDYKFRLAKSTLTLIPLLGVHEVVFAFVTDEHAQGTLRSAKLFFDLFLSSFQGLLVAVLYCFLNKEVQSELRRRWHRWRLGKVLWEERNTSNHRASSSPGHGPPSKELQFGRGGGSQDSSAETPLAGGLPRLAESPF

[2] = biological target: GLP-1 receptor (UniProt P43220 24-463, limits assumed)
[3] = biological target: T1, GIP receptor (UniProt P48546 22-466)
T1 sequence (looked up): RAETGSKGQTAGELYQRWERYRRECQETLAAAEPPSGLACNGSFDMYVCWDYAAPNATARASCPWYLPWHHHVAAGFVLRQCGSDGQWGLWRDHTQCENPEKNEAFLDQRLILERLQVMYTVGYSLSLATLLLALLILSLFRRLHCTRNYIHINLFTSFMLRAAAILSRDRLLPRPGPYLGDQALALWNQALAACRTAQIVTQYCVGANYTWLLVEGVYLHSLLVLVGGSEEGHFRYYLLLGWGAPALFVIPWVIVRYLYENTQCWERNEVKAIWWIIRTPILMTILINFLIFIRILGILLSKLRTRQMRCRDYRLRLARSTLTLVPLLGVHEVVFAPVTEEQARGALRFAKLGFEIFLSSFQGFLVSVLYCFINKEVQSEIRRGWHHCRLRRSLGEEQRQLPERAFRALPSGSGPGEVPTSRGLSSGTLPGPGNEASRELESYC

[4] = biological target: T2, glucagon receptor (UniProt P47871 26-477, limits assumed); remark: listed apart in the source
T2 sequence (P47871 26-477 limits assumed): as the sequence (P47871 26-477 limits assumed) above

[5] = biological target: T2, glucagon receptor; remark: listed apart in the source
[6] = biological target: GLP-1 receptor (UniProt P43220 24-463, limits assumed); remark: listed apart in the source
[7] = biological target: T3, GIP receptor (UniProt P48546 22-466); remark: listed apart in the source
T3 sequence (looked up): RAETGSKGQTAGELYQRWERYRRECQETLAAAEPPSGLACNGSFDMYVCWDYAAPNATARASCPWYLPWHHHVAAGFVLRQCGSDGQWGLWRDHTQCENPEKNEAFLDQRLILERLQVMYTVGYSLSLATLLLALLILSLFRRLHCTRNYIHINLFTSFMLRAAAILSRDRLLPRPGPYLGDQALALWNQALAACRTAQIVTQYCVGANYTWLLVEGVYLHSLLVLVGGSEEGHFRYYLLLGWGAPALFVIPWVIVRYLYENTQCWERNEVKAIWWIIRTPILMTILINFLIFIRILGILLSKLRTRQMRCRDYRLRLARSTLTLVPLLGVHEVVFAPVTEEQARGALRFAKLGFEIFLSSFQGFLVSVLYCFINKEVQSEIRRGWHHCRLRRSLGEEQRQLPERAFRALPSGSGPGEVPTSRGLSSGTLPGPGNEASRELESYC

Row | Binder | EC50 [1] [nM] | relative activity [1] [%] | EC50 [2] [nM] | relative activity [2] [%] | EC50 [3] [nM] | relative activity [3] [%] | % activity* [4] [%] | EC50 at Glucagon Receptor [4] [nM] | other results
1 | B1 | 0.319 | 13.2 | 0.018 | 117 | 0.013 | 146 |  |  | 
2 | B2 |  |  |  |  |  |  | 86 | 0.07 | 
3 | B3 | 5.46 | 2.45 | 0.018 | 117 | 0.013 | 146 |  |  | 
4 | B4 | 0.667 | 6.3 | 0.033 | 63.6 | 0.062 | 30.6 |  |  | 
5 | B5 | 2.76 | 1.52 | 0.015 | 140 | 0.033 | 57.6 |  |  | 
6 | B6 |  |  |  |  |  |  | 19 | 0.31 | 
7 | B7 | 0.297 | 23.1 | 0.0189 | 63 | 0.0799 | 12 |  |  | 
8 | B8 |  |  |  |  |  |  | 25 |  | 
9 | B9 | 0.487 | 14.1 | 0.0202 | 58.9 | 0.057 | 16.8 |  |  | 
10 | B10 |  |  |  |  |  |  | 13 | 0.48 | 
11 | B11 |  |  |  |  |  |  | 7 | 0.91 | 
12 | B12 |  |  |  |  |  |  | 33 |  | 
13 | B13 |  |  |  |  |  |  | 15 |  | 
14 | B14 |  |  |  |  |  |  |  |  | EC50, nM; Glucagon Receptor [5]: 499 nM; relative activity; Glucagon Receptor [5]: 0.01%; EC50, nM; GLP-1 Receptor [6]: 0.0636 nM; relative activity; GLP-1 Receptor [6]: 14.6%; EC50, nM; GIP Receptor [7]: 0.0566 nM; relative activity; GIP Receptor [7]: 27.4%
15 | B15 |  |  |  |  |  |  | 7 | 0.92 | 

Source: patent US20110166062A1 (INDIANA UNIVERSITY RESEARCH AND TECHNOLOGY, published 2011)
